Assays:
Test in all cases: cell-based or functional assay
[1] = target: Gal4ad-ZipA(185-328) fusion (pGAD424 fusion) (Escherichia coli) (UniProt P77173)
[2] = target: Gal4ad-ZipA(185-302) fusion (pGAD424 fusion) (Escherichia coli)
[3] = target: Gal4 activation domain alone (pGAD424 vector, no fusion) (UniProt P04386)
[4] = target: Gal4ad-ZipA(35-284) fusion (pGAD424 fusion) (Escherichia coli)
[5] = target: Gal4ad-ZipA(62-328) fusion (pGAD424 fusion) (Escherichia coli)
[6] = target: Gal4ad-ZipA(35-185) fusion (pGAD424 fusion) (Escherichia coli)
Sequence of Gal4ad-ZipA(35-185) fusion (pGAD424 fusion) (Escherichia coli) (P04386 768-881): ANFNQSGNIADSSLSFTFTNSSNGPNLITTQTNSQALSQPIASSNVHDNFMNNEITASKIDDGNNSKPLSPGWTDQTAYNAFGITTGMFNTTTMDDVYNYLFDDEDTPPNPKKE

Sequence of Gal4ad-ZipA(185-302) fusion (pGAD424 fusion) (Escherichia coli) (P04386 768-881): as above
Sequence of Gal4ad-ZipA(35-284) fusion (pGAD424 fusion) (Escherichia coli) (P04386 768-881): as above
Sequence of Gal4 activation domain alone (pGAD424 vector, no fusion) (P04386 768-881 limits assumed): as the sequence (P04386 768-881) above
Sequence of Gal4ad-ZipA(62-328) fusion (pGAD424 fusion) (Escherichia coli) (P04386 768-881): as above

Gal4 DNA-binding domain alone (pAS2-1 vector, no fusion) (from UniProt P04386 1-147)
beta-galactosidase (lacZ reporter) activity, MUG fluorescence, yeast two-hybrid [1]: 877 units
beta-galactosidase (lacZ reporter) activity, MUG fluorescence, yeast two-hybrid [2]: 1120 units
beta-galactosidase (lacZ reporter) activity, MUG fluorescence, yeast two-hybrid [3]: 621 units
beta-galactosidase (lacZ reporter) activity, MUG fluorescence, yeast two-hybrid [4]: 832 units
beta-galactosidase (lacZ reporter) activity, MUG fluorescence, yeast two-hybrid [5]: 743 units
beta-galactosidase (lacZ reporter) activity, MUG fluorescence, yeast two-hybrid [6]: 930 units

— US20030078191A1
